B1: FHL2 (NP_963851.2) (other, human, UniProt Q14192 1-279, looked up)
chain: MTERFDCHHCNESLFGKKYILREESPYCVVCFETLFANTCEECGKPIGCDCKDLSYKDRHWHEACFHCSQCRNSLVDKPFAAKEDQLLCTDCYSNEYSSKCQECKKTIMPGTRKMEYKGSSWHETCFICHRCQQPIGTKSFIPKDNQNFCVPCYEKQHAMQCVQCKKPITTGGVTYREQPWHKECFVCTACRKQLSGQRFTARDDFAYCLNCFCDLYAKKCAGCTNPISGLGGTKYISFEERQWHNDCFNCKKCSLSLVGRGFLTERDDILCPDCGKDI
B2: FABP4 (NP_001433.1) (other, human, UniProt P15090 1-132, looked up)
chain: MCDAFVGTWKLVSSENFDDYMKEVGVGFATRKVAGMAKPNMIISVNGDVITIKSESTFKNTEISFILGQEFDEVTADDRKVKSTITLDGGVLVHVQKWDGKSTTIKRKREDDKLVVECVMKGVTSTRVYERA
B3: human MuRF1 polypeptide (muscle ring finger 1), full length (enzyme)
chain: MENLEKQLICPICLEMFTKPVVILPCQHNLCRKCANDIFQAANPYWTSRGSSVSMSGGRFRCPTCRHEVIMDRHGVYGLQRNLLVENIIDIYKQECSSRPLQKGSHPMCKEHEDEKINIYCLTCEVPTCSMCKVFGIHKACEVAPLQSVFQGQKTELNNCISMLVAGNDRVQTIITQLEDSRRVTKENSHQVKEELSQKFDTLYAILDEKKSELLQRITQEQEEKLSFIEALIQQYQEQLDKSTKLVETAIQSLDEPGGATFLLTAKQLIKSIVEASKGCQLGKTEQGFENMDFFTLDLEHIADALRAIDFGTDEEEEEFIEEEDQEEEESTEGKEEGHQ
notes: Full length bait in the yeast two-hybrid screens; also called TRIM63; RNF28

Legend:
[1] = molecular target: B3; assay: yeast two-hybrid, full length bait
[2] = molecular target: B3; assay: yeast two-hybrid
[3] = molecular target: ENO3 (NP_443739.2) (human, UniProt P13929 1-434, limits assumed); assay: yeast two-hybrid
ENO3 (NP_443739.2), sequence (P13929 whole entry): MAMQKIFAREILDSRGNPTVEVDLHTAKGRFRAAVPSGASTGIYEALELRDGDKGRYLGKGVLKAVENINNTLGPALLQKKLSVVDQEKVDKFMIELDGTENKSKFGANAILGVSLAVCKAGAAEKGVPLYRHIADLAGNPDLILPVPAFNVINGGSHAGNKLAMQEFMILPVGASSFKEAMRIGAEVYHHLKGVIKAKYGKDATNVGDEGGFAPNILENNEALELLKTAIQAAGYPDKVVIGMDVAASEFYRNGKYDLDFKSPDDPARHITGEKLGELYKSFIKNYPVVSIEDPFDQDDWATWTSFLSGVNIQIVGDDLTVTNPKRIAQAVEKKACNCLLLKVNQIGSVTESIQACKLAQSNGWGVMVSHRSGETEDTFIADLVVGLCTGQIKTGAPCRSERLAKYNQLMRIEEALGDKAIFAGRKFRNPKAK

[4] = molecular target: T1, sequestosome-1 (NP_003891.1) (human, UniProt Q13501 1-440, limits assumed); assay: yeast two-hybrid, full length bait
T1 construct: also called SQSTM1

[5] = molecular target: T2, EEF1G (NP_001395.1) (human, UniProt P26641 1-437, limits assumed); assay: yeast two-hybrid, full length bait
T2 construct: also called translation initiation factor EEF1G
T2 sequence (P26641 whole entry): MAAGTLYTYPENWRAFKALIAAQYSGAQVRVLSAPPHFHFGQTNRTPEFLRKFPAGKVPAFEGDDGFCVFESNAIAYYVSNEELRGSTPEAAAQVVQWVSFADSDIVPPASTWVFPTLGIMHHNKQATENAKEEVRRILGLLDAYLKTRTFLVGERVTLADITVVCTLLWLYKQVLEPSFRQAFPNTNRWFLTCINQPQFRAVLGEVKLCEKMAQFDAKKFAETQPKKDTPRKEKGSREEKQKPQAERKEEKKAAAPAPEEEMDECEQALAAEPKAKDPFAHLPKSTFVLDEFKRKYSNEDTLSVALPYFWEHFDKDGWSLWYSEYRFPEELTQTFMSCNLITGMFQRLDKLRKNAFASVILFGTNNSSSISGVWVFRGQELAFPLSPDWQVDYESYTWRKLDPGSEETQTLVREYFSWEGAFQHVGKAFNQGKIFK

B1
binding result [1]: binds

B2
binding result [2]: binds

B3
binding result [3]: binds
binding result [4]: binds
binding result [5]: binds

From patent EP2072528A1 (Labeit, a person, dated 2009)
